Results reported in paper PMC5879082, “PutA Is Required for Virulence and Regulated by PruR in Pseudomonas aeruginosa”.

B1: putA promoter F6 (dsDNA)
DNA 1: TTCCGCAGCCAGGAGTTTTCCGCAAAAACTCCAGAGTCTTTCGCAAGAATCGC
DNA 2: GCGATTCTTGCGAAAGACTCTGGAGTTTTTGCGGAAAACTCCTGGCTGCGGAA

Key:
[1] = target: T1, rPruR (AraC/XylS family regulator) (Pseudomonas aeruginosa PAK) (UniProt Q9I5F8); assay: EMSA; settings: 50 mM Tris pH 7.9, 50 mM NaCl, 0.5 mM EDTA, 10% glycerol, 1% NP-40, 25 C, 10 min; 50 ng DNA, 2 ug rPruR in 20 ul; 8% native PAGE in TBE on ice (EMSA) …
T1 sequence: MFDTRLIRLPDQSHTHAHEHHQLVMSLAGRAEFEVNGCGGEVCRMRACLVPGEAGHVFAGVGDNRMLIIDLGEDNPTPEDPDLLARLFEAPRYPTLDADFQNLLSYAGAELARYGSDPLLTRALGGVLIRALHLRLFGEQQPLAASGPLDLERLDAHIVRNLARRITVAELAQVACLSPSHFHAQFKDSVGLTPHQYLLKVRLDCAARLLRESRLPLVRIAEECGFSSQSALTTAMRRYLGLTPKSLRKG

[2] = target: T2, rPruR (AraC/XylS family regulator) (Pseudomonas aeruginosa PAK, UniProt Q9I5F8 1-250); assay: EMSA; 50 mM Tris pH 7.9, 50 mM NaCl, 0.5 mM EDTA, 10% glycerol, 1% NP-40, 25 C, 10 min; 50 ng DNA, 2 ug rPruR in 20 ul; 8% native PAGE in TBE on ice (EMSA); footprint 300 ng probe, 0.09 U DNase I, 25 C 5 min; settings: protein: recombinant; tags: His tag (pET-28a(+)); blunt
T2 sequence: T1 sequence

Row | Molecule | binding [1] | binding result [2]
1 | CCCTCTCGCAGCCACTACATTCCGCTATCCGCTGGTGCCTCGCGCCGGCGGAATGGGCCTGACCCATACTGATCCGTATTCCCGCGCCACAGGACGTGCCGCGCCGCCGGCACAACCCGCCGGCGGCGGTGCCCCGGGCAATGGACGCCTGGCCGGACTTCTTTCAATAACAATGGCTCCACAAGAGGAGGGCGTG (double strand) [putA promoter F3] | no binding | –
2 | CTTTCCCGTTCCTCTTCGCCGGCAGGCATGCGGACATTGCCGCTGCACGTCGGCACGACGCCATGCAGAGTGGCTACGCGGGTCTACCGACACAAAAAGAAATAATATAACATCCCAATAAATACGCCGAT (double strand) [putA promoter F5] | no binding | –
3 | B1 | – | binds
